Experimental data from publication doi:10.1101/2020.12.15.422995.

Molecular target: T1, Fur (PerR homolog), 17.4 kDa (Bacillus subtilis, UniProt P54574 1-149)
T1 sequence: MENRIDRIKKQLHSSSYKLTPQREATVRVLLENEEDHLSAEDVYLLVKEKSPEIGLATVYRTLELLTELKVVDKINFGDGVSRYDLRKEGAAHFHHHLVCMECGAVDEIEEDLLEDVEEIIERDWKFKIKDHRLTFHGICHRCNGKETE
Test: EMSA

B1: 54-bp degenerate sloR promoter (Deg_sloR_CC1) (dsDNA)
DNA 1: CCTGATAGGATGATGGATAATTAAGGCTTTTATCCACTTTTTACTGACATTTTG
DNA 2: CAAAATGTCAGTAAAAAGTGGATAAAAGCCTTAATTATCCATCATCCTATCAGG
B1 was tested, and the binding signal was 63 % band shift at 60 nM Fur (relative to 400 nM).
